In US20090081197A1, “Methods for Selection of Melanocortin Receptor-Specific Agents for Treatment of Obesity” (Palatin Technologies, Inc., priority 2007, published 2009):

Tests used:
[1] = biological target: human melanocortin 3 receptor (human) (UniProt P41968); assay: radioligand competition, [I125]-NDP-α-MSH, hMC3-R membranes
[2] = biological target: human melanocortin 4 receptor (human) (UniProt P32245); assay: radioligand competition, [I125]-NDP-α-MSH, hMC4-R membranes
[3] = biological target: MC1-R of B-16 mouse melanoma cells (mouse) (UniProt Q01727); assay: radioligand competition, [I125]-NDP-α-MSH, B-16 membranes
Chain of MC1-R of B-16 mouse melanoma cells (mouse) (Q01727 whole entry): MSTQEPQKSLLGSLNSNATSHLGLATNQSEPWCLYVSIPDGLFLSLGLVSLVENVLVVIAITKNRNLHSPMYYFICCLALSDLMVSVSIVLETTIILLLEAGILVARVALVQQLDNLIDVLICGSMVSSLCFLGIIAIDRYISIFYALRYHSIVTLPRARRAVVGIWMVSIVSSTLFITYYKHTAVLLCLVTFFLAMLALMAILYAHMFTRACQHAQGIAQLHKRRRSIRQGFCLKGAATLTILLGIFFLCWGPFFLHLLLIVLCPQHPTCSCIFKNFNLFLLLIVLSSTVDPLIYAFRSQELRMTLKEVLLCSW

[4] = biological target: human melanocortin 5 receptor (human) (UniProt P33032); assay: radioligand competition, [I125]-NDP-α-MSH, hMC5-R membranes
Chain of human melanocortin 5 receptor (human) (P33032 whole entry): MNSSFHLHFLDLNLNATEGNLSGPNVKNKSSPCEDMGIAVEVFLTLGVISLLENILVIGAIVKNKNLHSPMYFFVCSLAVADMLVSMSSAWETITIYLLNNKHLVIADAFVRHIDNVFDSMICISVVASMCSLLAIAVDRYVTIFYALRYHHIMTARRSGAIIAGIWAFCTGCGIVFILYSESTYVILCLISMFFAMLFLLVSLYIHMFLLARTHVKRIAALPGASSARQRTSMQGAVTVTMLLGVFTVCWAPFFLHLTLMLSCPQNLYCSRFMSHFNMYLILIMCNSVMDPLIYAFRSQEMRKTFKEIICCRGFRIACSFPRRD

[5] = biological target: MC1-R of B-16 mouse melanoma cells (mouse) (UniProt Q01727); assay: radioligand competition, [I125]-NDP-α-MSH, B-16 membranes, 1 µM compound
[6] = biological target: human melanocortin 4 receptor (human) (UniProt P32245); assay: radioligand competition, [I125]-NDP-α-MSH, hMC4-R membranes, 1 µM compound
[7] = biological target: human melanocortin 4 receptor (human) (UniProt P32245); assay: cell-based or functional assay
[8] = biological target: human melanocortin 3 receptor (human) (UniProt P41968); assay: radioligand competition, [I125]-NDP-α-MSH, hMC3-R membranes, 1 µM compound
[9] = biological target: human melanocortin 5 receptor (human) (UniProt P33032); assay: radioligand competition, [I125]-NDP-α-MSH, hMC5-R membranes, 1 µM compound

Chain of human melanocortin 4 receptor (human) (P32245 whole entry): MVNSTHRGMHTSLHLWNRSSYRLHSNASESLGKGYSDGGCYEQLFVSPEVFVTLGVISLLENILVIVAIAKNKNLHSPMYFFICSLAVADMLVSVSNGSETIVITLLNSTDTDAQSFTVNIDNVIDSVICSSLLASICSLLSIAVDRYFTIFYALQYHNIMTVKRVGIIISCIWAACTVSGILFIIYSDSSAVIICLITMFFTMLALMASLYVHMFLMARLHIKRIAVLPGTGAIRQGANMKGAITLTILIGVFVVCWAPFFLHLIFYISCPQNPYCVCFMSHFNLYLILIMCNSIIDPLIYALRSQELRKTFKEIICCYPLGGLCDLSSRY
Chain of human melanocortin 3 receptor (human) (P41968 whole entry): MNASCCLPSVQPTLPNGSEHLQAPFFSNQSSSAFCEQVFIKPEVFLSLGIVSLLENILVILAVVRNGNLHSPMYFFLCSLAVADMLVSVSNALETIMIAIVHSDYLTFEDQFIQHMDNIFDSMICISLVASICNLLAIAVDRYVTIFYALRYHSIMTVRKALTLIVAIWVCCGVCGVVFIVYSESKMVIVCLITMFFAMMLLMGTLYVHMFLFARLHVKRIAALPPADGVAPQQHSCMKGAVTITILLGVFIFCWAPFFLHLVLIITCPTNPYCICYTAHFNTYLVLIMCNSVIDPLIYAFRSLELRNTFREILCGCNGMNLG

How did the Ki [1] turn out when “2-naphthylacetyl-1-amino-1-cyclohexane-carbonyl-D-Phe(4-Cl)-Arg-Trp-NH2 (peptide)” was run?
The Ki was 0.453 µM.

What about the Ki [2] of the same substance?
The Ki was 0.04 µM.

And the Ki [3]?
The Ki was 0.897 µM.

And the Ki [4]?
Its Ki is 0.3 µM.

What about the Inhibition at 1 µM (NDP-α-MSH) [5] of the same substance?
Its Inhibition at 1 µM (NDP-α-MSH) is 25%.

What about the Inhibition at 1 µM (NDP-α-MSH) [6] of the same substance?
The Inhibition at 1 µM (NDP-α-MSH) was 92%.

And the EC50 (nM), normal system (cAMP) [7]?
Its EC50 (nM), normal system (cAMP) is greater than 1000 nM.

And the intrinsic activity, normal system (cAMP) [7]?
Its intrinsic activity, normal system (cAMP) is 0.2.

And the Inhibition at 1 µM (NDP-α-MSH) [8]?
Its Inhibition at 1 µM (NDP-α-MSH) is 35%.

What about the Inhibition at 1 µM (NDP-α-MSH) [9] of the same substance?
Its Inhibition at 1 µM (NDP-α-MSH) is 63%.

What does the source list for “7'-amino-heptanoyl-Ser(Bzl)-D-Phe(4-Cl)-Arg-S-(-)-1-(1-naphthyl)ethylamide (peptide)”?
Ki [1]: 0.125 µM; Ki [2]: 0.007 µM; Ki [3]: 0.338 µM; Ki [4]: 0.313 µM; Inhibition at 1 µM (NDP-α-MSH) [5]: 46%; Inhibition at 1 µM (NDP-α-MSH) [6]: 98%; EC50 (nM) (cAMP), High Receptor Density System [7]: 180 nM; EC50 (nM), normal system (cAMP) [7]: 17 nM; Efficacy/Intrinsic Activity (cAMP), High Receptor Density System [7]: 0.63; intrinsic activity, normal system (cAMP) [7]: 0.3; Inhibition at 1 µM (NDP-α-MSH) [8]: 85%; Inhibition at 1 µM (NDP-α-MSH) [9]: 64%

How did the EC50 (nM) (cAMP), 0.1 ng/mL Doxycycline [7] turn out when PT-141 (peptide) was run?
The EC50 (nM) (cAMP), 0.1 ng/mL Doxycycline was 3 nM.

What about the EC50 (nM) (cAMP), 10 ng/mL Doxycycline [7] of the same substance?
Its EC50 (nM) (cAMP), 10 ng/mL Doxycycline is 0.9 nM.

And the Efficacy/Intrinsic Activity (cAMP), 0.1 ng/mL Doxycycline [7]?
Its Efficacy/Intrinsic Activity (cAMP), 0.1 ng/mL Doxycycline is 0.9.

And the Efficacy/Intrinsic Activity (cAMP), 10 ng/mL Doxycycline [7]?
Its Efficacy/Intrinsic Activity (cAMP), 10 ng/mL Doxycycline is 1.
